According to the RNAGym collection of RNA variant scans (doi:10.7554/elife.90254):

B1: LINE1-full (parent)
chain: UACGUAGGUGGUUUUCCCCUGAUAGUGCUAAGGGGGCCUGGAAGUUUGGACUGGGCAGAGCUCAACACAGCGUGGCAAAGUGGCUGUGGCUAGACUGCCUCUCUGGAUUCCUCGUCACUCAGCAGGGCAUCUCUGAGAGAAAUGCC

Variants of: B1
Test: self-cleavage, relative activity (ratio to wild type); higher = more cleavage; in vitro, sequencing; the parent is a self-cleaving ribozyme
Variant U47C A140U has a self-cleavage of 0.6. With U87G A142G the self-cleavage was 0.25. With U39C U52C the self-cleavage was 0.37. Work on A50G U102C yielded a self-cleavage of 1.51. For G105U A107C, the self-cleavage was 2.34. U14G A140U showed a self-cleavage of 0.64. For G54A U62A, the self-cleavage was 0.01. For A121G A129G, the self-cleavage was 1.58. With C17U A94U the self-cleavage was 0.17. Variant G10A A50U has a self-cleavage of 1.32. With A2G G93A the self-cleavage was 0.1. Work on A30G U96A yielded a self-cleavage of 0.21. U1C U104C gave a self-cleavage of 0.68. A67G U102C gave a self-cleavage of 0.58. With U14A C101A the self-cleavage was 1.42. U52A C146A showed a self-cleavage of 1.16. For U12C U73A, the self-cleavage was 1.75. In the case of C16U A129G, the self-cleavage is reported as 1.25. Variant C51U U73A has a self-cleavage of 1.48. For G75U U115A, the self-cleavage was 1.06. For A124G C133A, the self-cleavage was 0.81. Work on A43G G82A yielded a self-cleavage of 1.31. C61G U85C gave a self-cleavage of 0.15. C128A gave a self-cleavage of 0.7. U96A U130A gave a self-cleavage of 0.05. In the case of U115C, the self-cleavage is reported as 1.58. With U100C U112C the self-cleavage was 1.89. With U52C A78U the self-cleavage was 1.56. A24G A136G gave a self-cleavage of 1.15. With A30C U112C the self-cleavage was 1.33. For A94G G125C, the self-cleavage was 0.57. For U14C A67G, the self-cleavage was 0.61. In the case of U20G U47A, the self-cleavage is reported as 0.51. For G97A A142G, the self-cleavage was 0.02. Work on A2G C84A yielded a self-cleavage of 0.26. A24G U85A showed a self-cleavage of 0.13. Work on U104C A140U yielded a self-cleavage of 1.25. U87A U115C showed a self-cleavage of 0.09. U9C C98G showed a self-cleavage of 0.22. U85A C98U gave a self-cleavage of 0.09. In the case of U26C A43G, the self-cleavage is reported as 1.43. A69U A136G showed a self-cleavage of 0.06. For G41A C68U, the self-cleavage was 0.23. Variant G44C A117U has a self-cleavage of 1.53. In the case of G83A A138G, the self-cleavage is reported as 0.73. C16U A142G showed a self-cleavage of 0.96. A67U U134A showed a self-cleavage of 0.08. Variant A65U U91G has a self-cleavage of 0.06. A22G C38U gave a self-cleavage of 1.95. With A2C C56U the self-cleavage was 0.11. For A121U G125C, the self-cleavage was 1.28. With U115C A117G the self-cleavage was 1.4. Work on U12C A92C yielded a self-cleavage of 0.81. With U132A A142G the self-cleavage was 1.41. For G74A U143A, the self-cleavage was 1.72. In the case of G48A G49U, the self-cleavage is reported as 0.57. Variant A6G U73A has a self-cleavage of 1.11. With G34A U96A the self-cleavage was 0.05. For A117U U134C, the self-cleavage was 1.52. In the case of U20A A42G, the self-cleavage is reported as 1.06. U26C A140U gave a self-cleavage of 0.59. C68U A142G showed a self-cleavage of 0.14. U87A C123U showed a self-cleavage of 0.06. In the case of U13A G48A, the self-cleavage is reported as 1.01. Variant C51U U81C has a self-cleavage of 1.57. A57G U109C gave a self-cleavage of 0.49. Work on U45C U52C yielded a self-cleavage of 0.95. With U15C C99U the self-cleavage was 0.55. U46A U143C showed a self-cleavage of 1.38. For U23A C120A, the self-cleavage was 0.82. For G25A A142G, the self-cleavage was 1.35. With A31U A138U the self-cleavage was 1.4. A30G G55U gave a self-cleavage of 0.79. U45C U47A gave a self-cleavage of 1.3. Work on U87C A141G yielded a self-cleavage of 0.24. Work on A24G U115A yielded a self-cleavage of 1.45. In the case of A50G G105A, the self-cleavage is reported as 0.43. Work on U26C C63U yielded a self-cleavage of 0.66. A50U G86A showed a self-cleavage of 0.06. Variant U26A C95U has a self-cleavage of 0.17. With C51A U115C the self-cleavage was 1.5. With U81A U109C the self-cleavage was 1.98. Variant A59G U119C has a self-cleavage of 0.13. U62A U132C gave a self-cleavage of 0.06. A69U G89A showed a self-cleavage of 0.04. In the case of A64C A78U, the self-cleavage is reported as 0.46. U62G U115C showed a self-cleavage of 0. Variant U62A U130C has a self-cleavage of 0.05. For A117C G126A, the self-cleavage was 1.64. For A138G A140C, the self-cleavage was 1.8. C3U A77G showed a self-cleavage of 0.71. With U47A U143G the self-cleavage was 1.2. Work on C3U A59U yielded a self-cleavage of 0.56. U85C G125U gave a self-cleavage of 0.11. For G35A A136G, the self-cleavage was 1.21. For A6U G72A, the self-cleavage was 1.2. In the case of U46A U73A, the self-cleavage is reported as 1.35. A24C A121G gave a self-cleavage of 2.59. Work on C118U yielded a self-cleavage of 1.32. U45A U104C gave a self-cleavage of 1.77. Work on C61U U91C yielded a self-cleavage of 0.03. In the case of G126U, the self-cleavage is reported as 1.18. G44A A117G gave a self-cleavage of 1.21. In the case of U91C A136U, the self-cleavage is reported as 0.58. U119C A124U gave a self-cleavage of 1.58. Variant U119C A124G has a self-cleavage of 1.62. U15A G33A showed a self-cleavage of 0.98. For A24C A140G, the self-cleavage was 1.15. U15C A142C showed a self-cleavage of 1.8. With U85C A121U the self-cleavage was 0.25. In the case of U81A A124C, the self-cleavage is reported as 2.45. Variant U5A A129U has a self-cleavage of 1.47. G54A U132C showed a self-cleavage of 0.53. Variant A117G U132A has a self-cleavage of 0.59. Variant U5G U112A has a self-cleavage of 0. With C3U U73C the self-cleavage was 1.49. In the case of A24U U47A, the self-cleavage is reported as 0.99. U108G U130A gave a self-cleavage of 0.77. Work on C63A G97A yielded a self-cleavage of 0.01. In the case of U9A A42C, the self-cleavage is reported as 0.56. For C101A A129G, the self-cleavage was 0. With U62C G125A the self-cleavage was 0.06. Work on U14G U115C yielded a self-cleavage of 0.79. For C63U U104C, the self-cleavage was 0.1. Work on A67U A136G yielded a self-cleavage of 0.2. In the case of U52A G80C, the self-cleavage is reported as 0.98. Work on U14C A59U yielded a self-cleavage of 0.88. C113A U134C showed a self-cleavage of 0.33. Variant A78G A136G has a self-cleavage of 1.45. With U39A A79G the self-cleavage was 1.35. A138C A140G showed a self-cleavage of 0.07. U12C C101A showed a self-cleavage of 1.72. For U73A U85A, the self-cleavage was 0.05. In the case of U20A U112A, the self-cleavage is reported as 1.82. Variant A50G A136G has a self-cleavage of 1.04. With U12A U46C the self-cleavage was 1.31. With U96A U108C the self-cleavage was 0.08. In the case of C110A, the self-cleavage is reported as 1.35. Work on G8C A129G yielded a self-cleavage of 1.31. In the case of U46C U119C, the self-cleavage is reported as 1.13. C3A U9C showed a self-cleavage of 1.11. With C19U A121C the self-cleavage was 1.02. Work on C103G yielded a self-cleavage of 1.25. A2U U47A gave a self-cleavage of 0.85. In the case of U47C G114A, the self-cleavage is reported as 1.66. U39A U81C gave a self-cleavage of 1.39. With A65G C110U the self-cleavage was 0.07. U46C G82A showed a self-cleavage of 2.42. In the case of A124C A138C, the self-cleavage is reported as 1.86. G36C C146G showed a self-cleavage of 1.21. A79G U85C showed a self-cleavage of 0.11. In the case of G86U U96G, the self-cleavage is reported as 0.13. For A77U A136G, the self-cleavage was 1.19. For A69U U132A, the self-cleavage was 0.06. In the case of G82U U115C, the self-cleavage is reported as 0.84. With U12C G49U the self-cleavage was 1.35. With U29C G83A the self-cleavage was 0.43. Variant A6G G11A has a self-cleavage of 2.36. Work on A50G U104C yielded a self-cleavage of 1.08. A79C U108C showed a self-cleavage of 2.12. For G34A A50G, the self-cleavage was 0.87. For A67U G74A, the self-cleavage was 0.08. A67U U104A gave a self-cleavage of 0.03. In the case of U81G U119C, the self-cleavage is reported as 1.54. With G32A A121G the self-cleavage was 1.53. With G44U A78G the self-cleavage was 1.68. In the case of U102A C146U, the self-cleavage is reported as 0.99.
